Measurements as given in PMC7070046, “Sjögren syndrome/scleroderma autoantigen 1 is a direct Tankyrase binding partner in cancer cells” (Communications Biology, 2020).
Where no end group is shown, it is not given here.

T1: TNKS1 ARC subdomains 1–3 (ARC1–3, residues 178–645) (human, UniProt O95271 178-645)
T1 chain: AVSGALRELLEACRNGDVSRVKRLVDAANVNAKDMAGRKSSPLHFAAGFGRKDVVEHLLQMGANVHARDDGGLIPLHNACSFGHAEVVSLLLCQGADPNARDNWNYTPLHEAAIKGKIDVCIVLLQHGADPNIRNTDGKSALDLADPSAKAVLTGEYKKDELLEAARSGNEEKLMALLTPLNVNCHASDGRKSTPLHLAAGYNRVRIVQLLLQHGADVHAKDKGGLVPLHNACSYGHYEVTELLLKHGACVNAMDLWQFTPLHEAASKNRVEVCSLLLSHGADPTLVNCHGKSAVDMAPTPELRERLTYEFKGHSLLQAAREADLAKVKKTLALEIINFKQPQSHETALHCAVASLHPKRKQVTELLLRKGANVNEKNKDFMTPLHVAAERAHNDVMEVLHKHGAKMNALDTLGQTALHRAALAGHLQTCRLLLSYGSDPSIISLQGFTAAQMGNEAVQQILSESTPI

T2: TNKS1 ARC subdomains 1–3 (ARC1–3, residues 178–645) (human, UniProt O95271 178-645)
T2 construct: human Tankyrase 1, ankyrin repeat clusters 1-3, residues 178-645; Cloned into pETM11 with NcoI and XhoI; also called TNKS1 ARC1–3
T2 sequence (looked up): T1 chain

B1: SSSCA1 N-terminal Auto_anti-p27 domain (M1-S111) (domain or fragment, human, UniProt O60232 1-111, looked up)
chain: MALNGAEVDDFSWEPPTEAETKVLQARRERQDRISRLMGDYLLRGYRMLGETCADCGTILLQDKQRKIYCVACQELDSDVDKDNPALNAQAALSQAREHQLASASELPLGS
notes: Residues 1-12 and 78-111 are not modelled in the crystal structure; also called N-terminal SSSCA1; hSSSCA1; not shown: His6, N-terminal, cleaved
B2: SSSCA1-H2 peptide (TSLETSIQLCGLIRACAEALRSLQQL) (peptide)
peptide: TSLETSIQLCGLIRACAEALRSLQQL
modifications: not fully specified (N-terminus); cysteine pairing not given here; also: 5-FAM-Ahx-conjugated
B3: SSSCA1-H1 peptide (DVMACTQTALLQKLTWASAELGSS) (peptide)
peptide: DVMACTQTALLQKLTWASAELGSS
modifications: not fully specified (N-terminus); also: 5-FAM-Ahx-conjugated
notes: human SSSCA1, helix H1 region; source: synthetic peptide (bought: GenScript)
B4: SSSCA1-H2 peptide (TSLETSIQLCGLIRACAEALRSLQQL) (peptide)
peptide: TSLETSIQLCGLIRACAEALRSLQQL
modifications: cysteine pairing not given here; also: 5-FAM-Ahx conjugate, position not given here
notes: human SSSCA1, helix H2 region; source: synthetic peptide (bought: GenScript)
B5: Axin1 positive control peptide (EDAPRPPVPGEEG) (peptide)
peptide: EDAPRPPVPGEEG
modifications: not fully specified (N-terminus); also: 5-FAM-Ahx-conjugated
notes: source: synthetic peptide (bought: GenScript)

Assays:
[1] = molecular target: the molecule itself; assay: SEC; HiLoad Superdex S75 16/600; 20 mM HEPES pH 7.4, 200 mM NaCl, 5% glycerol, 0.1 mM TCEP; elution compared with standard proteins (estimated native MW 24.6 kDa, predicted 12.5 kDa)
[2] = molecular target: T1, TNKS1 ARC subdomains 1–3 (ARC1–3, …); assay: FP
[3] = molecular target: T2, TNKS1 ARC subdomains 1–3 (ARC1–3, …); assay: fluorescence polarisation; 50 nM 5-FAM-Ahx peptide with varied ARC1–3 protein; 25 mM HEPES pH 8, 150 mM NaCl, 1 mM TCEP, 5% glycerol, 0.05% CHAPS; room temperature, 60 min; one-site total binding model; conditions: both partners purified

Row | Binder | stoichiometry N [1] | Kd [2] | binding result [3]
1 | B1 | 2 |  | 
2 | B2 |  | 60 nM | 
3 | B3 |  | 460 nM | binds
4 | B4 |  |  | binds
5 | B5 |  | 460 nM | binds
